The DeepSol protein solubility set

Assay: soluble on expression in E. coli; label from the status in PepcDB or PDB records

Sequence | soluble on expression in E. coli
MSFEEFTPLNEKSLVDYIKSTPALSSKIGADKSDDDLVIKEVGDGNLNFVFIVVGSSGSLVIKQALPYIRCIGESWPMTKERAYFEATTLRKHGNLSPDHVPEVYHFDRTMALIGMRYLEPPHIILRKGLIAGIEYPFLADHMSDYMAKTLFFTSLLYHDTTEHRRAVTEFCGNVELCRLTEQVVFSDPYRVSTFNRWTSPYLDDDAKAVREDSALKLEIAELKSMFCERAQALIHGDLHTGSVMVTQDSTQVIDPEFSFYGPMGFDIGAYLGNLILAFFAQDGHATQENDRKEYKQWILRTIEQTWNLFNKRFIALWDQNKDGPGEAYLADIYNNTEVLKFVQENYMRNLLHDSLGFGAAKMIRRIVGVAHVEDFESIEEDKRRAICERSALEFAKMLLKERRKFKSIGEVVSAIQQQS | soluble
MQEPQARIAALLRDADDILITTHANPDGDAIGSLGAMGHVLATLGKRFCLCNVSGVPSHLSWVPLPGQVYTSFDELPFQPRLAIVLDCGDEKRPGEALRAPLADLPSINIDHHQGNPLFGTVDNWVEPQRAATGEMVAEIALALGQPLAGALGECLYLALVSDTGSFSFGNTSARVLSLAAEIVGNGLDVAALTERHDNQWSFARMQLWGRLMQEMRLAFDGTVAISVIPDALIESCGARRADLEGWASQMRKVRGVRVSVMVRGNGPEGSKVSLRSTGSDDVRAVAARFGGGGHRNAAGVEMPLPPEEASRQVVAALGEQLGLDGDGASLYVLEHHHHHH | soluble
MQMLDRLESEILADRVSEESRRWLASCGLTVEQMKNQMDPVYTPARKIHLYHCDHRGLPLALISTEGATAWCAEYDEWGNLLSDENPHHLQQLIRLPGQQYDEESGLYYNRHRYYDPLLGRYITQDPIGLKGGWNFYQYPLNPVINVDPQGLVDINLYPESDLIHSVADEINIPGVFTIGGHGTPTSIESATRSIMTAKDLAYLIKFDGNYKDGMTVWLFSCNTGKGQNSFAS | soluble
MITLTLFGQETSSSALIFAYCNAATGSNTMSTDCRRRLNKDLYLLIPEHPMNPKQFERWKSQLSQLSPQQLRALQGEIDRSLHQNESALLTEEERDAIAHLFS | not soluble
ELQAIHEKVKTEHAALSTEVVHLRQRTEELLRCNEQQAAELETCKEQLFQSNMERKELHNTVMDLRGNIRVFCRIRPPLESEENRMCCTWTYHDESTVELQSIDAQAKSKMGQQIFSFDQVFHPLSSQSDIFEMVSPLIQSALDGYNICIFAYGQTGSGKTYTMDGVPESVGVIPRTVDLLFDSIRGYRNLGWEYEIKATFLEIYNEVLYDLLSNEQKDMEIRMAKNNKNDIYVSNITEETVLDPNHLRHLMHTAKMNRATASTAGNERSSRSHAVTKLELIGRHAEKQEISVGSINLVDLAGSESPKTSTRMTETKNINRSLSELTNVILALLQKQDHIPYRNSKLTHLLMPSLGGNSKTLMFINVSPFQDCFQESVKSLRFAASVNSCKMTKAKRNRYLNNSVANSSTQSNNSGSFDK | soluble
MIKKGYHVAVVGATGAVGQKIIELLENEMKFNVVEVTLLSSKRSAGKKVRFKGREIIIQEAKTTSFEGVDIAFFSAGGEVSRQFVTHAVSSGAIVIDNTSEYRMAQGVPLVVPEVNAHTLKQHKGIIAVPNCSALQMVTALQPIRKSFGLERIIVSTYQAVSGSGIHAIHELREQAKSILAGEEVKSDILPVKKDKKHYPIAFNVLPQVDIFTDNDFTFEEVKMIQETKKILEDENLKMAATCVRVPVVSGHSESVYIELEKEASVAEIKGILMDAPGVILQDNPSEQLYPMPLYAEGKIDTFVGRIRKDPDTPNGFHLWIVSDNLLKGAAWNSVQIAETLVEKGIL | not soluble
MNNHFKCIGIVGHPRHPTALTTHEMLYRWLCTKGYEVIVEQQIAHELQLKNVKTGTLAEIGQLADLAVVVGGDGNMLGAARTLARYDIKVIGINRGNLGFLTDLDPDNAQQQLADVLEGHYISEKRFLLEAQVCQQDCQKRISTAINEVVLHPGKVAHMIEFEVYIDEIFAFSQRSDGLIISTPTGSTAYSLSAGGPILTPSLDAITLVPMFPHTLSARPLVINSSSTIRLRFSHRRNDLEISCDSQIALPIQEGEDVLIRRCDYHLNLIHPKDYSYFNTLSTKLGWSKKLFMAGDPLEHHHHHH | soluble
MSGWNVNASSFVPNANARPFVPGQPYTPQPEQAAPEPTEDWEAQADTSPAAVQPEVAEPVAVQESAPVAPVSATEAPKKEPTPEEDLVAPLAKKFQRTVYVDDGTHKEHINMVFVGHVDAGKSTIGGQLMFLTGMVDKRTLEKYEREAKEKGRESWYLSWCMDTNDEEREKGKTVEVGRAYFETEKRHFTILDAPGHKSFVPNMIVGANQADLAVLVISARRGEFETGFDRGGQTREHSMLVKTAGVKHLVILVNKMDDPTVKWEEERFKEIEGKLTPFLRKLGFNPKTDITYVPCSGLTGAFIKDRPTGSEGNWYSGPCFIEFIDVLLPSYKRDFNGPVRCTVAEKYSEMGTVIIGKMESGCVQKGDTLVVMPNKQPVQVLQIWADDVETERVVAGDNIKFKLKGIEENELQGGFIICSPDSLAKTGRVFDAEVLVLEHRSIIASGYSCVLHIQSAVEEVTVKGVIATIDKKTGEKKRAKFVKQDEKCIMRLESPEPFVLEPFKEYPYLGRFTLRDEGKTIAIGKVLKVVE | not soluble
MKLMQIRKPLLKSSLLDQNLTEEEVNMKFVQDLLNWVDEMQVQLDRTEWGSDLPSVESHLENHKNVHRAIEEFESSLKEAKISEIQMTAPLKLSYTDKLHRLESQYAKLLNTSRNQERHLDTLHNFVTRATNELIWLNEKEESEVAYDWSERNSSVARKKSYHAELMRELEQKEESIKAVQEIAEQLLLENHPARLTIEAYRAAMQTQWSWILQLCQCVEQHIQE | soluble
MGSDKIHHHHHHMQMKQVLLEARQDFLSLLKRRGWKEKDLNILRGIFLGELSRVDVPADIFELAIKEAVKGNLKLSSKLLGVSEIDTLEILFWYLPKKYPLPSERLKKRLKAESVKEFIEEANRLRVKLGKKDFMELYLHLEEAEEEEEKRENTDLLERVRNLSIEKLSESEIEELRYFYSLLDLRGKESVRTLNVHPYILSAIIRNPSAPIVIDGSNLLWRGGLSVSYIYEVFERLAVFREFFFPYRIVFDRNAEFVLPVHERKGFERWKNSPNVLFESPADGLIISLANTMDAVVLSGDRFRDHGLPRRVRVLTPEEIEKG | not soluble
MGSDKIHHHHHHMRTLTISDEIVPAVYSLNIKQRFADVQLVLACGDLPIYYLEFVVTMLGQPCFYVWGNHDAPEVQADGQVVSYARGATCIEDHVVCHQGLLIGGLGGSIRYKPDGHHQYTETQMMLRVLRMAPRLFLNRLRYGRYLDVLLTHAPPLGIHNGPDYPHRGFLALLRFIQWFRPRYLIHGHIHLSYGFGHATETLYGQTLVINTAGYRVLDLAI | not soluble
MGSDKIHHHHHHENLYFQGMQLLKELCSIHAPSGNEEPLKDFILEYIRSNAGSWSYQPVIYADNDLQDCIVLVFGNPRTAVFAHMDSIGFTVSYNNHLHPIGSPSAKEGYRLVGKDSNGDIEGVLKIVDEEWMLETDRLIDRGTEVTFKPDFREEGDFILTPYLDDRLGVWTALELAKTLEHGIIAFTCWEEHGGGSVAYLARWIYETFHVKQSLICDITWVTEGVEAGKGVAISMRDRMIPRKKYVNRIIELARQTDIPFQLEVEGAGASDGRELQLSPYPWDWCFIGAPEKDAHTPNECVHKKDIESMVGLYKYLMEKL | soluble
MQYINESATVSASNNVEKLRKQGLKIYNFGIGEPDFTTPEGIIDYAFEMAKQGKTHYTPSAGIMELREKIASKLKTRNRIDANAENVLVTPTKFGINLAMMVILNPGDEVIIPDPYYVSYPDIVKLAGGKPVPVRTTDDYDIDLDEMRKFVTPRTRAIILNNPNNPTGKVLSEKEIRDLVDFALENDIYIVSDEIYEDLIYEGSLYSPASMGKEAFEHTITLNGFSKGYAMTGWRIGYFVATEEIVEAANIIQQQTITCASSISQYAALRALDDNESPARMRSEFRKRRDLAYGILSESTDMKVHKPEGAFYMFPGYSKDIPSEKIAEMLLNQEHVVVTPGSAFGDRGRHHFRISFATSEDIIKEGLERLVKFMHTL | soluble
MGSDKIHHHHHHMSRVGFTTSIPVEVILAAGKTPVDLNNVFINSLSPQSMVDLAEEEGYPRNCCGWIKGLYATSLNYDMEALIAVMHGDCSNTQALMETLQLRNKKIIPFAFPFDRERSQLEAQVDKLMQFFEVDMEEVLKARARLEKIRSLCRELDRMTWRDNLVTGQENHYYLLCSSDFNGNPAEFEAELHSFVEEAGKRRPIQEEVRLAYIGVPPIFTDLHQLLELMGARVVFNEVQRQFSMPVESSDIIEQYLHYTYPYGAFARLEDIEEQLAVRDVQGVIHYTQTFCFRQIEDLIFRERLKIPFLTLEGDRPGKVDARSRMRLESFVSMLKK | not soluble
MVLIKEFRVVLPCSVQEYQVGQLYSVAEASKNETGGGEGIEVLKNEPYEKDGEKGQYTHKIYHLKSKVPAFVRMIAPEGSLVFHEKAWNAYPYCRTIVTNEYMKDDFFIKIETWHKPDLGTLENVHGLDPNTWKTVEIVHIDIADRSQVEPADYKADEDPALFQSVKTKRGPLGPNWKKELANSPDCPQMCAYKLVTIKFKWWGLQSKVENFIQKQEKRIFTNFHRQLFCWIDKWIDLTMEDIRRMEDETQKELETMRKRGSVRGTSAADV | soluble
MTYVLAESPEFYQDNVTDYTGQISSSDITNIQAAIDDVKASEQKVIFVVFLSSFDGVDPETWTQQALQANGGGNVLIYALAPEERQYGIQGGTQWTDAELDAANNAAFQALSQEDWAGSALALAESVGSSSSSSLEHHHHHH | not soluble
MGSDKIHHHHHHLSQSTPDLLTKQLRYTDYLRANGIPFMKCVKPTDEALFTTIMDSIGQEWTCCLFHWIDGHHVTANTEQTAARMGQLARQLHDVSLHEQEIQFPFIDHTVTYQRWLGDLQRLSASRMPEPVQNSFQEYLTLAQQHLDTARLPKSSSLQPVISTDLNSLNVLWDSDQHIVGIVDHEHIGATDRVQDLAWLIKWYARTEGIDSHDVSGRLAKSLLTHYNSPTLLVPKEDPRLASLLWLSGCMNLHFVERTKQLAFDAENNPVGYDQFQLHLQTYRLRGERLVGLLT | not soluble
MGSDKIHHHHHHMSNTAQLITPSPIGLIADITELFEKTFAHFSRTLKVNADDIPEETMSFHTWSSIDNFPTLIQKYRDEYYGDNDLKPNDKALYSLWSQWYFGLIIPPMMLLLIEYPQTIDTHHKNFKVLFHHSGRPEVVYYQLKWQSQDPGTLLERYYLLLNHHVIPIAEKIESYQGINGRLLWNNIGYLMFWYLGEFKGRLGDDLYQSIINGLFMELSLPNGQDNPLYRTVMLRNGTLQRRSCCQRNKLPGVRSCHDCPLEKPPLNLIS | not soluble
MGSDKIHHHHHHMINYMIPKGFLCCGKHVGIKKRKLDLGVVYSEKLCSAAAVFTKNKFCGIPIIVGKENIKDNKLQSIVVTSGVANVATGEEGLKNTYRILNKLSCELNIKSENILPSSTGIIGKQLPIDCIITGINGIKSSLSKYNWEEFNRAIMTTDKELKIKSCKIGDATVLGIAKGSGMIEPNMATMLAYFFTDASIKAVELKGILKRAVDKSFNMISIDHDTSTSDTAAILANGYVGNVNLEVFEKTFTDMCIDMAKDIVRDGEGVSKLIEATVMGCSSFESAKVIAKSIINSPLVKIAIYGSDPNWGRIAMAIGKSFEDDVDPLKIEIAFNSNVIYDKGKIYEENFDCIERYLRDNNECKIQANLNVGDFAATVWGSDFTEDYIRINSYYTKRK | not soluble
